According to patent publication US20120244563A1:

Key:
Assay in all cases: ELISA; coated glycoprotein, biotin-labeled lectin 1 µg/mL; grade of A450 reaction value (Low 0.1 to 0.2, Moderate 0.2 to 0.5, High 0.5 or more)
Immunoglobulin A = molecular target: Immunoglobulin A
Immunoglobulin G = molecular target: Immunoglobulin G
Immunoglobulin M = molecular target: Immunoglobulin M
[1] = molecular target: Prostate-specific antigen (Homo sapiens (Human)) (UniProt P07288)
[2] = molecular target: α-Fetoprotein L3 (Homo sapiens (Human)) (UniProt P02771)
α2-Macroglobulin = molecular target: α2-Macroglobulin
[3] = molecular target: α-Fetoprotein (Homo sapiens (Human)) (UniProt P02771)
Chain of α-Fetoprotein (Homo sapiens (Human)) (P02771 19-609 limits assumed, form in doubt): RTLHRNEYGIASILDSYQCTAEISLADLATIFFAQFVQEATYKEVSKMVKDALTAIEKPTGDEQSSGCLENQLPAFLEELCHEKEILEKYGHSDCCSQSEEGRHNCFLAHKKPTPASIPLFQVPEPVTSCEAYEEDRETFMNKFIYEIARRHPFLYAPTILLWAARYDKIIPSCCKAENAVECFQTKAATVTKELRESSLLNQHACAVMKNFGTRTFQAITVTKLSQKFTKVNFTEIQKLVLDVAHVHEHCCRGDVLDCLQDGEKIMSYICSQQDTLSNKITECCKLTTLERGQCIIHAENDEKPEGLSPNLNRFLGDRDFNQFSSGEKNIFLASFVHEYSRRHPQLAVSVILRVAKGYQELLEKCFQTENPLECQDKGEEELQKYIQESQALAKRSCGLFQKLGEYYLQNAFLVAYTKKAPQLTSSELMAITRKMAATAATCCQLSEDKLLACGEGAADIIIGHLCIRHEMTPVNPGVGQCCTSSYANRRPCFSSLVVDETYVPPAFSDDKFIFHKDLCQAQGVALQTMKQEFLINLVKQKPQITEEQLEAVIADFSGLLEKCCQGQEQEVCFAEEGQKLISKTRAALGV

Chain of α-Fetoprotein L3 (Homo sapiens (Human)) (P02771 19-609 limits assumed, form in doubt): as above
Chain of Prostate-specific antigen (Homo sapiens (Human)) (P07288 25-261 limits assumed, form in doubt): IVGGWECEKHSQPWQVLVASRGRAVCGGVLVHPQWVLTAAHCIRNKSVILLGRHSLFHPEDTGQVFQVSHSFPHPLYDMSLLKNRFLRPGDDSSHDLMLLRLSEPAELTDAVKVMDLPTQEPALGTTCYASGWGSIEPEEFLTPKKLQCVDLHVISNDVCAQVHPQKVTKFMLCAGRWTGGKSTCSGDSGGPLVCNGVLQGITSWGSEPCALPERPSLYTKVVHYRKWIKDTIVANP
Chain of α2-Macroglobulin (P01023 24-1474): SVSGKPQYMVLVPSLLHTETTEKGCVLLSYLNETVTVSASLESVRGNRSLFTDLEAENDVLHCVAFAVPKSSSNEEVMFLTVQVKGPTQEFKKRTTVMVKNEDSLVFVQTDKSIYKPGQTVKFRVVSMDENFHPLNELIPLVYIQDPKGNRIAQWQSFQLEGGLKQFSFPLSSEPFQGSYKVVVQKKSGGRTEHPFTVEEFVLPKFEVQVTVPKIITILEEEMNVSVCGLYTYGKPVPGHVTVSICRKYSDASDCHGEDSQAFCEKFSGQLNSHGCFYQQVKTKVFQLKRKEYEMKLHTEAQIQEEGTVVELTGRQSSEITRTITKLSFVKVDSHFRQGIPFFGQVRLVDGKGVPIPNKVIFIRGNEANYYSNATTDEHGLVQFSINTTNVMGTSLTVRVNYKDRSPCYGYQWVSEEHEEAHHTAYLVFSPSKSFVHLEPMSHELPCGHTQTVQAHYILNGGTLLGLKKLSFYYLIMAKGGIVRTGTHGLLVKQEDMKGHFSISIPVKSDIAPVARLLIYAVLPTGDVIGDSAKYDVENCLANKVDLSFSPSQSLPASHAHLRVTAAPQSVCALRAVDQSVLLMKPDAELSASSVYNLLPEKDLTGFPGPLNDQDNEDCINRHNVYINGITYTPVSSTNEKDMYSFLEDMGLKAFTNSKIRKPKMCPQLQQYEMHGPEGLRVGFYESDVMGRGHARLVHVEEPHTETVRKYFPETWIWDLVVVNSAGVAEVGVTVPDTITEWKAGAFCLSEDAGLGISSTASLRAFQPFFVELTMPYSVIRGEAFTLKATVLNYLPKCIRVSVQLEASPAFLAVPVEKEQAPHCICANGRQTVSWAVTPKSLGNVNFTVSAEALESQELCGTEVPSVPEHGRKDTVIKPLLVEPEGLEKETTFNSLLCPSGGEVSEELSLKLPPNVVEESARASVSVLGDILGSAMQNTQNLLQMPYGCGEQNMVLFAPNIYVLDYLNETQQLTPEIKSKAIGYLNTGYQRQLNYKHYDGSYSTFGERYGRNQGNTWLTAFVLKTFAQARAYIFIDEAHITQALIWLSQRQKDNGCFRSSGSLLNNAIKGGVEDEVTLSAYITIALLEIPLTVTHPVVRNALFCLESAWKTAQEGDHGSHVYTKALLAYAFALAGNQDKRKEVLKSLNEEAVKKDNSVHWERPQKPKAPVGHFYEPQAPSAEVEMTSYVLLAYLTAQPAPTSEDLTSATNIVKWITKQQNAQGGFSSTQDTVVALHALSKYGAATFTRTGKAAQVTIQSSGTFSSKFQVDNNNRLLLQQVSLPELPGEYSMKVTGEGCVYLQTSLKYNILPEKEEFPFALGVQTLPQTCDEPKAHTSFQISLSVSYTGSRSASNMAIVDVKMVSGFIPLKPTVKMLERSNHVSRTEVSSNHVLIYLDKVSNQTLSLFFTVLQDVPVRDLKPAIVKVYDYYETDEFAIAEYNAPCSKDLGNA

| Substance | reaction value (absorbance at 450 nm minus blank) (Immunoglobulin A) | reaction value (absorbance at 450 nm minus blank) (Immunoglobulin G) | reaction value (absorbance at 450 nm minus blank) (Immunoglobulin M) | reaction value (absorbance at 450 nm minus blank) [1] | reaction value (absorbance at 450 nm minus blank) [2] | reaction value (absorbance at 450 nm minus blank) (α2-Macroglobulin) | reaction value (absorbance at 450 nm minus blank) [3] |
| --- | --- | --- | --- | --- | --- | --- | --- |
| Pholiota terrestris Overholts lectin | 0.2 to 0.5 od | 0.1 to 0.2 od | 0.1 to 0.2 od | > 0.5 od | > 0.5 od | 0.2 to 0.5 od |  |
| Aleuria aurantia lectin (from UniProt P18891 2-313) |  |  |  | 0.2 to 0.5 od | > 0.5 od |  | 0.2 to 0.5 od |
| Lens culinaris lectin (from UniProt P02870 31-210; P02870 218-269) |  |  |  |  | > 0.5 od |  |  |
